{"source": "IntAct's records for PubMed 20150893", "parents": {"B1": {"name": "Class E vacuolar protein-sorting machinery protein HSE1 (Saccharomyces cerevisiae), P38753 (parent)", "chain": "MSSSAIKIRNALLKATDPKLRSDNWQYILDVCDLVKEDPEDNGQEVMSLIEKRLEQQDANVILRTLSLTVSLAENCGSRLRQEISSKNFTSLLYALIESHSVHITLKKAVTDVVKQLSDSFKDDPSLRAMGDLYDKIKRKAPYLVQPNVPEKHNMSTQADNSDDEELQKALKMSLFEYEKQKKLQEQEKESAEVLPQQQQQHQQQNQAPAHKIPAQTVVRRVRALYDLTTNEPDELSFRKGDVITVLEQVYRDWWKGALRGNMGIFPLNYVTPIVEPSKEEIEKEKNKEAIVFSQKTTIDQLHNSLNAASKTGNSNEVLQDPHIGDMYGSVTPLRPQVTRMLGKYAKEKEDMLSLRQVLANAERSYNQLMDRAANAHISPPVPGPALYAGMTHANNTPVMPPQRQSYQSNEYSPYPSNLPIQHPTNSANNTPQYGYDLGYSVVSQPPPGYEQ"}, "B2": {"name": "Signal transducing adapter molecule 1 (Homo sapiens), Q92783 (parent)", "chain": "MPLFATNPFDQDVEKATSEMNTAEDWGLILDICDKVGQSRTGPKDCLRSIMRRVNHKDPHVAMQALTLLGACVSNCGKIFHLEVCSRDFASEVSNVLNKGHPKVCEKLKALMVEWTDEFKNDPQLSLISAMIKNLKEQGVTFPAIGSQAAEQAKASPALVAKDPGTVANKKEEEDLAKAIELSLKEQRQQSTTLSTLYPSTSSLLTNHQHEGRKVRAIYDFEAAEDNELTFKAGEIITVLDDSDPNWWKGETHQGIGLFPSNFVTADLTAEPEMIKTEKKTVQFSDDVQVETIEPEPEPAFIDEDKMDQLLQMLQSTDPSDDQPDLPELLHLEAMCHQMGPLIDEKLEDIDRKHSELSELNVKVMEALSLYTKLMNEDPMYSMYAKLQNQPYYMQSSGVSGSQVYAGPPPSGAYLVAGNAQMSHLQSYSLPPEQLSSLSQAVVPPSANPALPSQQTQAAYPNTMVSSVQGNTYPSQAPVYSPPPAATAAAATADVTLYQNAGPNMPQVPNYNLTSSTLPQPGGSQQPPQPQQPYSQKALL"}, "B3": {"name": "Vacuolar protein sorting-associated protein 27 (Saccharomyces cerevisiae), P40343 (parent)", "chain": "MSVSTPSELDALIEQATSESIPNGDLDLPIALEISDVLRSRRVNPKDSMRCIKKRILNTADNPNTQLSSWKLTNICVKNGGTPFIKEICSREFMDTMEHVILREDSNEELSELVKTILYELYVAFKNDSQLNYVAKVYDKLISRGIKFPEKLTLSNSPTAMFDSKTPADWIDSDACMICSKKFSLLNRKHHCRSCGGVFCQEHSSNSIPLPDLGIYEPVRVCDSCFEDYDLKRHDDSKKSKKHRHKRKKDRDYSTPEDEEELIRKAIELSLKESRNSASSEPIVPVVESKNEVKRQEIEEEEDPDLKAAIQESLREAEEAKLRSERQKASRQMQPQQPSPQPQPIHSVDLSDEEKDSIYMFASLVEKMKSRPLNEILEDSKLQNLAQRVFASKARLNYALNDKAQKYNTLIEMNGKISEIMNIYDRLLEQQLQSINLSQQYTLPQVPSDPYNYLTENVQNPAESYQTPPLQQLSSHQYKPQQDVSRQQSVKANSSPTTNIDHLKTIDVTPHAQQKPQSHVELAPSDPPYPKEEAEDEGTQAVQDEESSTQESRERPYPVETENGETSINKRPQGITRYDFPTVPARKFVQPESTVPLPASSSEIPIKEERPPSPQEELLIEL"}}, "data": [{"variants_of": "B1", "conditions": "with ubb_bovin UBB", "values": [{"variant": "S174D", "effect of a mutation on the interaction": "disrupting interaction"}, {"variant": "A170Q", "effect of a mutation on the interaction": "disrupting interaction"}]}, {"variants_of": "B2", "conditions": "with ubb_bovin UBB", "values": [{"variant": "W26A", "effect of a mutation on the interaction": "disrupting interaction"}]}, {"variants_of": "B2", "conditions": "with ubb_bovin UBB", "remark": "another data set of the same source", "values": [{"variant": "L30D", "effect of a mutation on the interaction": "disrupting interaction"}]}, {"variants_of": "B2", "conditions": "with ubb_bovin UBB", "remark": "another data set of the same source", "values": [{"variant": "G27E", "effect of a mutation on the interaction": "decreasing interaction"}]}, {"variants_of": "B2", "conditions": "with ubb_bovin UBB", "remark": "another data set of the same source", "values": [{"variant": "D31Q", "effect of a mutation on the interaction": "increasing interaction"}]}, {"variants_of": "B3", "conditions": "with ubb_bovin UBB", "values": [{"variant": "S270D", "effect of a mutation on the interaction": "disrupting interaction"}, {"variant": "A266Q", "effect of a mutation on the interaction": "disrupting interaction"}]}]}
